Two molecules from patent US20220025023A1 (AC IMMUNE, published 2022) can be followed below.

Where no end group is shown, it is not given here.

The target of one test is T1, TDP-210 peptide (human).
T1 construct: 8-mer of human TDP-43; same ELISA method as for the biotinylated 15-mers
T1 peptide: FFSQYGDV
Kind of test: indirect ELISA, 8-mer peptide library. In a few lines:
(§1)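 Hybridoma supernatant antibodies were tested by indirect ELISA on streptavidin-captured biotinylated 8-mer peptides with 7 aa overlap spanning human TDP-43 aa 210–231. Antibody binding was 2 h at 37 °C, then AP-conjugated anti-mouse IgG (1/1000, 1 h, 37 °C) was added. Read-out was pNPP absorbance at 405 nm.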

The target of another test is T2, TDP-211 peptide (human).
T2 construct: 8-mer of human TDP-43; same ELISA method as for the biotinylated 15-mers
T2 peptide: FSQYGDVM
As to the kind of experiment: indirect ELISA, 8-mer peptide library. Put shortly:
as §1
In general terms: In an ELISA, binding on a coated surface is turned into a signal by an enzyme label.

A further test has as its target T3, TDP-212 peptide (human).
T3 construct: 8-mer of human TDP-43; same ELISA method as for the biotinylated 15-mers
T3 peptide: SQYGDVMD
As to the kind of experiment: indirect ELISA, 8-mer peptide library. In a few lines: as §1

The next test addresses T4, TDP-213 peptide (human).
T4 construct: 8-mer of human TDP-43; same ELISA method as for the biotinylated 15-mers
T4 peptide: QYGDVMDV
Kind of test: indirect ELISA, 8-mer peptide library. Put shortly: as §1

Another test deals with T5, TDP-214 peptide (human).
T5 construct: 8-mer of human TDP-43; same ELISA method as for the biotinylated 15-mers
T5 peptide: YGDVMDVF
As to the kind of experiment: indirect ELISA, 8-mer peptide library. In a few lines: as §1

The next test concerns the target T6, TDP-216 peptide (human).
T6 construct: 8-mer of human TDP-43; same ELISA method as for the biotinylated 15-mers
T6 peptide: DVMDVFIP
As to the kind of experiment: indirect ELISA, 8-mer peptide library. In a few lines: as §1

In another test the target is T7, TDP-217 peptide (human).
T7 construct: 8-mer of human TDP-43; same ELISA method as for the biotinylated 15-mers
T7 peptide: VMDVFIPK
As to the kind of experiment: indirect ELISA, 8-mer peptide library. In a few lines: as §1

The target in a further test is T8, TDP-218 peptide (human).
T8 construct: 8-mer of human TDP-43; same ELISA method as for the biotinylated 15-mers
T8 peptide: MDVFIPKP
As to the kind of experiment: indirect ELISA, 8-mer peptide library. In a few lines:
as §1

In the next test the target is T9, TDP-219 peptide (human).
T9 construct: 8-mer of human TDP-43; same ELISA method as for the biotinylated 15-mers
T9 peptide: DVFIPKPF
As to the kind of experiment: indirect ELISA, 8-mer peptide library. Put shortly:
as §1

The target in another test is T10, TDP-220 peptide (human).
T10 construct: 8-mer of human TDP-43; same ELISA method as for the biotinylated 15-mers
T10 peptide: VFIPKPFR
Kind of test: indirect ELISA, 8-mer peptide library. In a few lines: as §1

The target of another test is T11, TDP-221 peptide (human).
T11 construct: 8-mer of human TDP-43; same ELISA method as for the biotinylated 15-mers
T11 peptide: FIPKPFRA
As to the kind of experiment: indirect ELISA, 8-mer peptide library. In a few lines:
as §1

The target in another test is T12, TDP-222 peptide (human).
T12 construct: 8-mer of human TDP-43; same ELISA method as for the biotinylated 15-mers
T12 peptide: IPKPFRAF
As to the kind of experiment: indirect ELISA, 8-mer peptide library. In a few lines: as §1

In another test the target is T13, TDP-223 peptide (human).
T13 construct: 8-mer of human TDP-43; same ELISA method as for the biotinylated 15-mers
T13 peptide: PKPFRAFA
As to the kind of experiment: indirect ELISA, 8-mer peptide library. Put shortly:
as §1

Another test addresses T14, TDP-224 peptide (human).
T14 construct: 8-mer of human TDP-43; same ELISA method as for the biotinylated 15-mers
T14 peptide: KPFRAFAF
As to the kind of experiment: indirect ELISA, 8-mer peptide library. In a few lines: as §1

The target of another test is T15, TDP-215 peptide (human).
T15 construct: same ELISA method as for the biotinylated 15-mers
T15 peptide: GDVMDVFI
Kind of test: indirect ELISA, 8-mer peptide library, OD 405 nm. In a few lines: as §1

The target in another test is T16, TDP-3 peptide (human).
T16 construct: Irrelevant control peptide; conjugated to Luminex beads in the assay; also called TDP-43 aa 310-370; irrelevant target
T16 peptide: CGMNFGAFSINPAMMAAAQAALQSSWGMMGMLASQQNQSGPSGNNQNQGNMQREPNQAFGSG
Kind of test: Luminex bead assay, TDP-3 peptide beads (irrelevant target).

Test [1] addresses T17, recombinant human full-length TDP-43 (human, UniProt Q13148 1-414).
T17 construct: Recombinant full-length protein; also called FL TDP-43; recFL TDP-43
Kind of test: Luminex bead assay, antibody serial dilution, FL TDP-43 beads.

The target of a further test is T18, TDP-1 peptide (human).
T18 construct: Immunogen peptide; conjugated to Luminex beads in the assay; also called TDP-43 aa 212-272
T18 peptide: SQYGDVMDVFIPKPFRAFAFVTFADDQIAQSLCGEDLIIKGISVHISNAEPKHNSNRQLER
Kind of test: Luminex bead assay, antibody serial dilution, TDP-1 peptide beads.

The target of a further test is T19, BSA (bovine, UniProt P02769).
T19 construct: not specified; also called bovine serum albumin
T19 sequence (P02769 25-607 limits assumed): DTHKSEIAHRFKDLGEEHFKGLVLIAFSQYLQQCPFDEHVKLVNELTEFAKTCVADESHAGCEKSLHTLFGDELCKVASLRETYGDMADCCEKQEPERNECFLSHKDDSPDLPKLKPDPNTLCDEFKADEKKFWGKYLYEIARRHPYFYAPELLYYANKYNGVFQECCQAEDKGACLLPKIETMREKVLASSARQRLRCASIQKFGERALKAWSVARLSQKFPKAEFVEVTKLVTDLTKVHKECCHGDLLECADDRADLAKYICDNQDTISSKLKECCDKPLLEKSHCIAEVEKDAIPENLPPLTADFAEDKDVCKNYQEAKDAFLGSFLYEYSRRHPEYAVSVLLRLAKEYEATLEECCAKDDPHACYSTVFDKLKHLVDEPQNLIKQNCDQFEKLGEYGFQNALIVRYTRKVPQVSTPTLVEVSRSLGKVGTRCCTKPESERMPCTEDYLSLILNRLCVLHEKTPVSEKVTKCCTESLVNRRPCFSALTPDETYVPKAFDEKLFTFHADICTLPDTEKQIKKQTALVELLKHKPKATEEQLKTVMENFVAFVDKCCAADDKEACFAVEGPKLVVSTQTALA
As to the kind of experiment: indirect ELISA, control coat in the 15-mer series, hybridoma supernatant.

In test [2] the target is T17, recombinant human full-length TDP-43. As to the kind of experiment: SPR avidity (Biacore T200), TDP-43 monomer immobilised, antibody as analyte, 1:1 model. Here is the method:
(§2) Avidity measurements were performed on an SPR instrument (Biacore T200, GE Healthcare Life Sciences) using CM5 Series S sensor chips. Recombinant human FL TDP-43 monomers or aggregated recombinant human FL TDP-43 was immobilized on a CM5 chip using amine coupling, injecting at a flow rate of 5 μl/min for 420 seconds. Conditions were optimized so that less than 200 RU protein was immobilized. Binding of the antibodies and the control antibody (2E2-D3) were obtained by injecting at: 1.37, 4.11, 12.33, 37, 111, and 333 nM in 1×PBS P+ at a flow rate of 50 μl/min for 90 s contact time and 600 s dissociation phase, with three regeneration cycles of the ligand surface by 10 mM Glycine-HCl (pH 1.7). Kinetics were analyzed using a 1:1 fitting model (see FIG. 8).
On the technique in general: SPR reads the build-up and loss of mass on a sensor chip optically.

The next test has as its target T20, TP-24 peptide (human, also: biotinylated, site not given here).
T20 construct: 15-mer of human TDP-43 from the library spanning aa 199-285; captured on streptavidin plates
T20 peptide: REFFSQYGDVMDVFI
Kind of test: indirect ELISA, biotinylated 15-mer peptide on streptavidin plate, hybridoma supernatant. Put shortly: (§3)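 Biotinylated 15-mer peptides (5 μg/mL) spanning human TDP-43 aa 199-285 captured on streptavidin plates, blocked with 1% BSA 1 h 37° C. Hybridoma supernatant added at indicated dilutions, 2 h 37° C; AP anti-mouse IgG 1/1000, 1 h 37° C; pNPP read at 405 nm.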

In the next test the target is T21, TP-25 peptide (human, also: biotinylated, site not given here).
T21 construct: 15-mer of human TDP-43 from the library spanning aa 199-285; captured on streptavidin plates
T21 peptide: VMDVFIPKPFRAFAF
The description is as above. In a few lines:
as §3

Test [3] concerns the target T22, aggregated recombinant human FL TDP-43 (human, UniProt Q13148 1-414).
T22 construct: also called TDP-43 aggregates
Kind of test: SPR avidity (Biacore T200), aggregated TDP-43 immobilised, antibody as analyte, 1:1 model. As for the experimental part:
as §2

T17 sequence (Q13148 whole entry): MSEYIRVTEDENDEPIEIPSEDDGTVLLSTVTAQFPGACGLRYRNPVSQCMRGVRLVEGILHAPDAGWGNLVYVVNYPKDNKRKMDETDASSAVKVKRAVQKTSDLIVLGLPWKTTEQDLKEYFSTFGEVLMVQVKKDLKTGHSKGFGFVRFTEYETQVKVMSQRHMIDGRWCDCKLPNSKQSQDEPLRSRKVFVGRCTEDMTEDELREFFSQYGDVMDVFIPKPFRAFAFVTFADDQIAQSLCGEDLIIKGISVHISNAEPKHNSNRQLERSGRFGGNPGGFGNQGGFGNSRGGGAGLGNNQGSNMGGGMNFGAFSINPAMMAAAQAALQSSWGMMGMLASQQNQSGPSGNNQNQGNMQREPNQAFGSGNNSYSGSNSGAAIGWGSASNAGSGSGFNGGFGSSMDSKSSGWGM
T22 sequence (Q13148 whole entry): as above

B1: ACI-7062-416A11-Ab1 (antibody, IgG2a, V domains shown)
VH: QVTLKESGPGILQSSQTLSLTCSFSGFSLSTYGIGVGWIRQPSGKGLEWLAHIWWNDNKYYNTALKSRLTISKDTSNNQVFLKIASVDTADAATYYCARVYGNLYYFGYWGQGTTLTVSS
VL: DVLMTQTPLSLPVSLGDRASISCRSSQSIVHSSGNTYLEWYLQKPGQSPKLLIYKVSNRFSGVPDRFSGSGSGTDFTLKISRVEAEDLGVYYCFQGSRVPTFGAGTKLELKR
notes: also called 416A11B3; clone 18
As for B1, the binding result with TDP-210 peptide, with TDP-211 peptide, in the test with TDP-212 peptide, with TDP-213 peptide, with TDP-214 peptide and with TDP-216 peptide was “no binding” throughout. For the same molecule, the binding result in the test with TDP-217 peptide, with TDP-218 peptide, in the test with TDP-219 peptide, with TDP-220 peptide, with TDP-221 peptide and with TDP-222 peptide was “no binding” in each case. Moreover, the binding result is recorded as “no binding” with TDP-223 peptide; “no binding” with TDP-224 peptide; “binds” with TDP-215 peptide; “no binding” with TDP-3 peptide; “no binding” with BSA. Moreover, the results for the EC50 (in [1]; in the test with TDP-1 peptide) were 0.015 nM and below 0.01 nM, respectively. For the same molecule, the values for the Kd in test [2] and in test [3] were 2.4 nM and 1.2 nM, respectively. Moreover, the values for the OD with TP-24 peptide and in the test with TP-25 peptide were 2.9 O.D. (405 nm) and 0.9 O.D. (405 nm), respectively.

B2: ACI-7062-406E3-Ab2 (antibody, IgG2a, V domains shown)
VH: QVTLKESGPAILQPSQTLSLTCSFSGFSLTTYGIGVGWIRQPSGKGLEWLAHIWWNDNKYYNTALKSRLTVSKDTSNNQVFLKIASVDTADTATYYCARVYGNLYYFAYWGQGTTLTVSS
VL: DVLMTQTPLSLPVSLGDRASISCRSSQSIVHRSGNTYLEWYLQKPGQSPKLLIYKVSNRFSGVPDRFSGSGSGTDFTLKISRVEAEDLGVYYCFQGSHVPTFGAGTKLELKR
notes: also called 406E3G10; clone 6
Consider B2, for which the binding result with TDP-210 peptide, in the test with TDP-211 peptide, with TDP-212 peptide, in the test with TDP-213 peptide, in the test with TDP-214 peptide and with TDP-216 peptide was “no binding” each time. In addition, the binding result with TDP-217 peptide, with TDP-218 peptide, with TDP-219 peptide, in the test with TDP-220 peptide, in the test with TDP-221 peptide and with TDP-222 peptide was “no binding” throughout. In addition, the binding result with TDP-223 peptide is “no binding”; in the test with TDP-224 peptide it was “no binding”; with TDP-215 peptide it was “binds”; with TDP-3 peptide, “no binding”; with BSA, “no binding”. Further, the concentration for a half-maximal effect (EC50) – broadly, the concentration that produces a half-maximal response – was 0.01 nM in test [1] and below 0.01 nM in the test with TDP-1 peptide. Also, the figures for the Kd in [2] and in [3] were 0.3 nM and 0.4 nM, respectively. Also, the values for the OD in the test with TP-24 peptide and with TP-25 peptide were 3.4 O.D. (405 nm) and 0.9 O.D. (405 nm), respectively.
